Consider one substance from article PMC5521178.

Holding throughout (assay): fluorescence polarisation
Test [1] has as its target FITC-labeled full-length caspase-7 S30A/C186A (UniProt P55210).
In test [2] the target is FITC-labeled full-length caspase-7 C186A phosphorylated by autoactivated PAK2 (UniProt P55210).
For test [3], the target named is FITC-labeled full-length caspase-7 C186A (UniProt P55210).

For orientation: Kd means the concentration at which binding is half-saturated. Turning to “caspase-9 constitutive dimer C287A (from UniProt P55211 1-416) (enzyme)”, the Kd in test [1] is 1700 nM; in test [2], over 27000 nM; in test [3], 1800 nM.
